Test results published in PMC5994540.

B1: GluN3A subunit: N296Q (protein)
parent chain: MRRLSLWWLLSRVCLLLPPPCALVLAGVPSSSSHPQPCQILKRIGHAVRVGAVHLQPWTTAPRAASRAQEGGRAGAQRDDPESGTWRPPAPSQGARWLGSALHGRGPPGSRKLGEGAGAETLWPRDALLFAVENLNRVEGLLPYNLSLEVVMAIEAGLGDLPLMPFSSPSSPWSSDPFSFLQSVCHTVVVQGVSALLAFPQSQGEMMELDLVSSVLHIPVLSIVRHEFPRESQNPLHLQLSLENSLSSDADVTVSILTMNNWYNFSLLLCQEDWNITDFLLLTENNSKFHLESVINITANLSSTKDLLSFLQVQMDNIRNSTPTMVMFGCDMDSIRQIFEMSTQFGLSPPELHWVLGDSQNVEELRTEGLPLGLIAHGKTTQSVFEYYVQDAMELVARAVATATMIQPELALLPSTMNCMDVKTTNLTSGQYLSRFLANTTFRGLSGSIKVKGSTIISSENNFFIWNLQHDPMGKPMWTRLGSWQGGRIVMDSGIWPEQAQRHKTHFQHPNKLHLRVVTLIEHPFVFTREVDDEGLCPAGQLCLDPMTNDSSMLDRLFSSLHSSNDTVPIKFKKCCYGYCIDLLEQLAEDMNFDFDLYIVGDGKYGAWKNGHWTGLVGDLLSGTANMAVTSFSINTARSQVIDFTSPFFSTSLGILVRTRDTAAPIGAFMWPLHWTMWLGIFVALHITAIFLTLYEWKSPFGMTPKGRNRNKVFSFSSALNVCYALLFGRTAAIKPPKCWTGRFLMNLWAIFCMFCLSTYTANLAAVMVGEKIYEELSGIHDPKLHHPSQGFRFGTVRESSAEDYVRQSFPEMHEYMRRYNVPATPDGVQYLKNDPEKLDAFIMDKALLDYEVSIDADCKLLTVGKPFAIEGYGIGLPPNSPLTSNISELISQYKSHGFMDVLHDKWYKVVPCGKRSFAVTETLQMGIKHFSGLFVLLCIGFGLSILTTIGEHIVHRLLLPRIKNKSKLQYWLHTSQRFHRALNTSFVEEKQPRSKTKRVEKSRWRRWTCKTEGDSELSLFPRSNLGPQQLMVWNTSNLSHDNQRKYIFNDEEGQNQLGTQAHQDIPLPQRRRELPASLTTNGKADSLNVTRSSVIQELSELEKQIQVIRQELQLAVSRKTELEEYQKTNRTCES
B2: GluN3A subunit: N426Q (protein)
parent chain: MRRLSLWWLLSRVCLLLPPPCALVLAGVPSSSSHPQPCQILKRIGHAVRVGAVHLQPWTTAPRAASRAQEGGRAGAQRDDPESGTWRPPAPSQGARWLGSALHGRGPPGSRKLGEGAGAETLWPRDALLFAVENLNRVEGLLPYNLSLEVVMAIEAGLGDLPLMPFSSPSSPWSSDPFSFLQSVCHTVVVQGVSALLAFPQSQGEMMELDLVSSVLHIPVLSIVRHEFPRESQNPLHLQLSLENSLSSDADVTVSILTMNNWYNFSLLLCQEDWNITDFLLLTENNSKFHLESVINITANLSSTKDLLSFLQVQMDNIRNSTPTMVMFGCDMDSIRQIFEMSTQFGLSPPELHWVLGDSQNVEELRTEGLPLGLIAHGKTTQSVFEYYVQDAMELVARAVATATMIQPELALLPSTMNCMDVKTTNLTSGQYLSRFLANTTFRGLSGSIKVKGSTIISSENNFFIWNLQHDPMGKPMWTRLGSWQGGRIVMDSGIWPEQAQRHKTHFQHPNKLHLRVVTLIEHPFVFTREVDDEGLCPAGQLCLDPMTNDSSMLDRLFSSLHSSNDTVPIKFKKCCYGYCIDLLEQLAEDMNFDFDLYIVGDGKYGAWKNGHWTGLVGDLLSGTANMAVTSFSINTARSQVIDFTSPFFSTSLGILVRTRDTAAPIGAFMWPLHWTMWLGIFVALHITAIFLTLYEWKSPFGMTPKGRNRNKVFSFSSALNVCYALLFGRTAAIKPPKCWTGRFLMNLWAIFCMFCLSTYTANLAAVMVGEKIYEELSGIHDPKLHHPSQGFRFGTVRESSAEDYVRQSFPEMHEYMRRYNVPATPDGVQYLKNDPEKLDAFIMDKALLDYEVSIDADCKLLTVGKPFAIEGYGIGLPPNSPLTSNISELISQYKSHGFMDVLHDKWYKVVPCGKRSFAVTETLQMGIKHFSGLFVLLCIGFGLSILTTIGEHIVHRLLLPRIKNKSKLQYWLHTSQRFHRALNTSFVEEKQPRSKTKRVEKSRWRRWTCKTEGDSELSLFPRSNLGPQQLMVWNTSNLSHDNQRKYIFNDEEGQNQLGTQAHQDIPLPQRRRELPASLTTNGKADSLNVTRSSVIQELSELEKQIQVIRQELQLAVSRKTELEEYQKTNRTCES
B3: GluN3A subunit: N439Q (protein)
parent chain: MRRLSLWWLLSRVCLLLPPPCALVLAGVPSSSSHPQPCQILKRIGHAVRVGAVHLQPWTTAPRAASRAQEGGRAGAQRDDPESGTWRPPAPSQGARWLGSALHGRGPPGSRKLGEGAGAETLWPRDALLFAVENLNRVEGLLPYNLSLEVVMAIEAGLGDLPLMPFSSPSSPWSSDPFSFLQSVCHTVVVQGVSALLAFPQSQGEMMELDLVSSVLHIPVLSIVRHEFPRESQNPLHLQLSLENSLSSDADVTVSILTMNNWYNFSLLLCQEDWNITDFLLLTENNSKFHLESVINITANLSSTKDLLSFLQVQMDNIRNSTPTMVMFGCDMDSIRQIFEMSTQFGLSPPELHWVLGDSQNVEELRTEGLPLGLIAHGKTTQSVFEYYVQDAMELVARAVATATMIQPELALLPSTMNCMDVKTTNLTSGQYLSRFLANTTFRGLSGSIKVKGSTIISSENNFFIWNLQHDPMGKPMWTRLGSWQGGRIVMDSGIWPEQAQRHKTHFQHPNKLHLRVVTLIEHPFVFTREVDDEGLCPAGQLCLDPMTNDSSMLDRLFSSLHSSNDTVPIKFKKCCYGYCIDLLEQLAEDMNFDFDLYIVGDGKYGAWKNGHWTGLVGDLLSGTANMAVTSFSINTARSQVIDFTSPFFSTSLGILVRTRDTAAPIGAFMWPLHWTMWLGIFVALHITAIFLTLYEWKSPFGMTPKGRNRNKVFSFSSALNVCYALLFGRTAAIKPPKCWTGRFLMNLWAIFCMFCLSTYTANLAAVMVGEKIYEELSGIHDPKLHHPSQGFRFGTVRESSAEDYVRQSFPEMHEYMRRYNVPATPDGVQYLKNDPEKLDAFIMDKALLDYEVSIDADCKLLTVGKPFAIEGYGIGLPPNSPLTSNISELISQYKSHGFMDVLHDKWYKVVPCGKRSFAVTETLQMGIKHFSGLFVLLCIGFGLSILTTIGEHIVHRLLLPRIKNKSKLQYWLHTSQRFHRALNTSFVEEKQPRSKTKRVEKSRWRRWTCKTEGDSELSLFPRSNLGPQQLMVWNTSNLSHDNQRKYIFNDEEGQNQLGTQAHQDIPLPQRRRELPASLTTNGKADSLNVTRSSVIQELSELEKQIQVIRQELQLAVSRKTELEEYQKTNRTCES
B4: GluN3A subunit: N320Q (protein)
parent chain: MRRLSLWWLLSRVCLLLPPPCALVLAGVPSSSSHPQPCQILKRIGHAVRVGAVHLQPWTTAPRAASRAQEGGRAGAQRDDPESGTWRPPAPSQGARWLGSALHGRGPPGSRKLGEGAGAETLWPRDALLFAVENLNRVEGLLPYNLSLEVVMAIEAGLGDLPLMPFSSPSSPWSSDPFSFLQSVCHTVVVQGVSALLAFPQSQGEMMELDLVSSVLHIPVLSIVRHEFPRESQNPLHLQLSLENSLSSDADVTVSILTMNNWYNFSLLLCQEDWNITDFLLLTENNSKFHLESVINITANLSSTKDLLSFLQVQMDNIRNSTPTMVMFGCDMDSIRQIFEMSTQFGLSPPELHWVLGDSQNVEELRTEGLPLGLIAHGKTTQSVFEYYVQDAMELVARAVATATMIQPELALLPSTMNCMDVKTTNLTSGQYLSRFLANTTFRGLSGSIKVKGSTIISSENNFFIWNLQHDPMGKPMWTRLGSWQGGRIVMDSGIWPEQAQRHKTHFQHPNKLHLRVVTLIEHPFVFTREVDDEGLCPAGQLCLDPMTNDSSMLDRLFSSLHSSNDTVPIKFKKCCYGYCIDLLEQLAEDMNFDFDLYIVGDGKYGAWKNGHWTGLVGDLLSGTANMAVTSFSINTARSQVIDFTSPFFSTSLGILVRTRDTAAPIGAFMWPLHWTMWLGIFVALHITAIFLTLYEWKSPFGMTPKGRNRNKVFSFSSALNVCYALLFGRTAAIKPPKCWTGRFLMNLWAIFCMFCLSTYTANLAAVMVGEKIYEELSGIHDPKLHHPSQGFRFGTVRESSAEDYVRQSFPEMHEYMRRYNVPATPDGVQYLKNDPEKLDAFIMDKALLDYEVSIDADCKLLTVGKPFAIEGYGIGLPPNSPLTSNISELISQYKSHGFMDVLHDKWYKVVPCGKRSFAVTETLQMGIKHFSGLFVLLCIGFGLSILTTIGEHIVHRLLLPRIKNKSKLQYWLHTSQRFHRALNTSFVEEKQPRSKTKRVEKSRWRRWTCKTEGDSELSLFPRSNLGPQQLMVWNTSNLSHDNQRKYIFNDEEGQNQLGTQAHQDIPLPQRRRELPASLTTNGKADSLNVTRSSVIQELSELEKQIQVIRQELQLAVSRKTELEEYQKTNRTCES
B5: GluN3A subunit: N300Q (protein)
parent chain: MRRLSLWWLLSRVCLLLPPPCALVLAGVPSSSSHPQPCQILKRIGHAVRVGAVHLQPWTTAPRAASRAQEGGRAGAQRDDPESGTWRPPAPSQGARWLGSALHGRGPPGSRKLGEGAGAETLWPRDALLFAVENLNRVEGLLPYNLSLEVVMAIEAGLGDLPLMPFSSPSSPWSSDPFSFLQSVCHTVVVQGVSALLAFPQSQGEMMELDLVSSVLHIPVLSIVRHEFPRESQNPLHLQLSLENSLSSDADVTVSILTMNNWYNFSLLLCQEDWNITDFLLLTENNSKFHLESVINITANLSSTKDLLSFLQVQMDNIRNSTPTMVMFGCDMDSIRQIFEMSTQFGLSPPELHWVLGDSQNVEELRTEGLPLGLIAHGKTTQSVFEYYVQDAMELVARAVATATMIQPELALLPSTMNCMDVKTTNLTSGQYLSRFLANTTFRGLSGSIKVKGSTIISSENNFFIWNLQHDPMGKPMWTRLGSWQGGRIVMDSGIWPEQAQRHKTHFQHPNKLHLRVVTLIEHPFVFTREVDDEGLCPAGQLCLDPMTNDSSMLDRLFSSLHSSNDTVPIKFKKCCYGYCIDLLEQLAEDMNFDFDLYIVGDGKYGAWKNGHWTGLVGDLLSGTANMAVTSFSINTARSQVIDFTSPFFSTSLGILVRTRDTAAPIGAFMWPLHWTMWLGIFVALHITAIFLTLYEWKSPFGMTPKGRNRNKVFSFSSALNVCYALLFGRTAAIKPPKCWTGRFLMNLWAIFCMFCLSTYTANLAAVMVGEKIYEELSGIHDPKLHHPSQGFRFGTVRESSAEDYVRQSFPEMHEYMRRYNVPATPDGVQYLKNDPEKLDAFIMDKALLDYEVSIDADCKLLTVGKPFAIEGYGIGLPPNSPLTSNISELISQYKSHGFMDVLHDKWYKVVPCGKRSFAVTETLQMGIKHFSGLFVLLCIGFGLSILTTIGEHIVHRLLLPRIKNKSKLQYWLHTSQRFHRALNTSFVEEKQPRSKTKRVEKSRWRRWTCKTEGDSELSLFPRSNLGPQQLMVWNTSNLSHDNQRKYIFNDEEGQNQLGTQAHQDIPLPQRRRELPASLTTNGKADSLNVTRSSVIQELSELEKQIQVIRQELQLAVSRKTELEEYQKTNRTCES

Experiment: surface/total immunofluorescence, COS-7, with GluN1-4a
Details: glycan lost; control: wild-type GluN1/GluN3A

localisation_or_trafficking, no change:
B1
B2
B3
B4
B5
